Here are results for 94 variants from the supplement of paper PMC10567573.

The labels stand for the following.
B1: TMEM106C (parent)
chain: YVTTNVSLIPPRSEQLVNFTGKAE
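Note: lentivirally expressed fusions sorted by FACS into six bins by GFP to DsRed ratio, PSI derived from sequencing read proportions per bin multiplied by bin number.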

In the data set the parent is B1. As to the kind of experiment: protein stability index of a GFP-peptide fusion (GPS, HEK-293T) (PSI 1-6); higher = more stable. Conditions: c terminus: a fixed tail appended.
For the variant YVTTNVSLIPPRSEQLVNFTGHAE [K22H], the protein stability index is 1.96.

YVTTNVSLIPPRSEQLVNFTGIAE [K22I]: the protein stability index is 1.88.

Regarding YVTTNVSLIPPRSEQLVNFTGEAE [K22E], the protein stability index was 1.78.

As for YVTTNVSLIPPRSEQLVNFTGDAE [K22D], the protein stability index worked out at 2.08.

Consider YVTTNVSLIPPRSEQLVNFTGWAE [K22W], for which the protein stability index came out at 3.19.

Take YVTTNVSLIPPRSEQLVNFTGYAE [K22Y]: the protein stability index worked out at 1.61.

As for YVTTNVSLIPPRSEQLVNFTGQAE [K22Q], the protein stability index turned out to be 1.53.

Consider YVTTNVSLIPPRSEQLVNFTGSAE [K22S], for which the protein stability index worked out at 1.72.

In the case of YVTTNVSLIPPRSEQLVNFTGCAE [K22C], the protein stability index turned out to be 2.1.

For the variant YVTTNVSLIPPRSEQLVNFTGRAE [K22R], the protein stability index is 1.8.

As to YVTTNVSLIPPRSEQLVNFTGMAE [K22M], the protein stability index was 2.54.

Take YVTTNVSLIPPRSEQLVNFTGGAE [K22G]: the protein stability index turned out to be 1.89.

Regarding YVTTNVSLIPPRSEQLVNFTGFAE [K22F], the protein stability index worked out at 2.26.

Take YVTTNVSLIPPRSEQLVNFTGTAE [K22T]: the protein stability index came to 2.14.

Consider YVTTNVSLIPPRSEQLVNFTGPAE [K22P], for which the protein stability index was determined as 1.76.

As to YVTTNVSLIPPRSEQLVNFTGVAE [K22V], the protein stability index worked out at 2.81.

YVTTNVSLIPPRSEQLVNFTGAAE [K22A]: the protein stability index came out at 2.23.

On to YVTTNVSLIPPRSEQLVNFTGNAE [K22N], for which the protein stability index is 2.04.

With YVTTNVSLIPPRSEQLVNFTGLAE [K22L], the protein stability index is 1.96.

Consider YVTTNVSLIPPRSEQLVMFTGKAE [N18M], for which the protein stability index amounted to 2.37.

As to YVTTNVSLIPPRSEQLVDFTGKAE [N18D], the protein stability index amounted to 3.25.

Turning to YVTTNVSLIPPRSEQLVGFTGKAE [N18G], the protein stability index was 1.7.

Regarding YVTTNVSLIPPRSEQLVVFTGKAE [N18V], the protein stability index worked out at 1.81.

Turning to YVTTNVSLIPPRSEQLVLFTGKAE [N18L], the protein stability index worked out at 2.14.

For the variant YVTTNVSLIPPRSEQLVPFTGKAE [N18P], the protein stability index was 2.4.

Turning to YVTTNVSLIPPRSEQLVIFTGKAE [N18I], the protein stability index was 3.13.

On to YVTTNVSLIPPRSEQLVHFTGKAE [N18H], for which the protein stability index came to 2.38.

Turning to YVTTNVSLIPPRSEQLVWFTGKAE [N18W], the protein stability index was 3.06.

Turning to YVTTNVSLIPPRSEQLVTFTGKAE [N18T], the protein stability index is 1.62.

On to YVTTNVSLIPPRSEQLVFFTGKAE [N18F], for which the protein stability index was 2.28.

For YVTTNVSLIPPRSEQLVSFTGKAE [N18S], the protein stability index stood at 2.36.

YVTTNVSLIPPRSEQLVAFTGKAE [N18A]: the protein stability index was 2.02.

Consider YVTTNVSLIPPRSEQLVEFTGKAE [N18E], for which the protein stability index worked out at 1.3.

In the case of YVTTNVSLIPPRSEQLVCFTGKAE [N18C], the protein stability index is 1.95.

Consider YVTTNVSLIPPRSEQLVKFTGKAE [N18K], for which the protein stability index was 2.71.

For the variant YVTTNVSLIPPRSEQLVQFTGKAE [N18Q], the protein stability index was 2.07.

Turning to YVTTNVSLIPPRSEQLVRFTGKAE [N18R], the protein stability index came to 2.33.

On to YVTTNVSLIPPRSEQLVNFTSKAE [G21S], for which the protein stability index is 1.6.

On to YVTTNVSLIPPRSEQLVNFTTKAE [G21T], for which the protein stability index stood at 1.86.

YVTTNVSLIPPRSEQLVNFTHKAE [G21H]: the protein stability index was 2.1.

On to YVTTNVSLIPPRSEQLVNFTYKAE [G21Y], for which the protein stability index turned out to be 3.28.

For the variant YVTTNVSLIPPRSEQLVNFTFKAE [G21F], the protein stability index is 2.77.

On to YVTTNVSLIPPRSEQLVNFTIKAE [G21I], for which the protein stability index came to 2.1.

As for YVTTNVSLIPPRSEQLVNFTLKAE [G21L], the protein stability index is 1.58.

On to YVTTNVSLIPPRSEQLVNFTVKAE [G21V], for which the protein stability index was found to be 2.12.

For the variant YVTTNVSLIPPRSEQLVNFTKKAE [G21K], the protein stability index is 1.59.

Turning to YVTTNVSLIPPRSEQLVNFTPKAE [G21P], the protein stability index amounted to 3.07.

As for YVTTNVSLIPPRSEQLVNFTCKAE [G21C], the protein stability index was determined as 1.83.

As to YVTTNVSLIPPRSEQLVNFTAKAE [G21A], the protein stability index was found to be 1.99.

Consider YVTTNVSLIPPRSEQLVNFTMKAE [G21M], for which the protein stability index was found to be 3.92.

As to YVTTNVSLIPPRSEQLVNFTNKAE [G21N], the protein stability index turned out to be 2.75.

As for YVTTNVSLIPPRSEQLVNFTQKAE [G21Q], the protein stability index worked out at 2.3.

Take YVTTNVSLIPPRSEQLVNFTDKAE [G21D]: the protein stability index worked out at 2.71.

YVTTNVSLIPPRSEQLVNFTWKAE [G21W]: the protein stability index is 2.5.

For the variant YVTTNVSLIPPRSEQLVNFTEKAE [G21E], the protein stability index worked out at 2.49.

In the case of YVTTNVSLIPPRSEQLVNFTRKAE [G21R], the protein stability index was determined as 2.32.

Consider YVTTNVSLIPPRSEGLVNFTGKAE [Q15G], for which the protein stability index worked out at 2.37.

Regarding YVTTNVSLIPPRSEYLVNFTGKAE [Q15Y], the protein stability index turned out to be 2.69.

Consider YVTTNVSLIPPRSEKLVNFTGKAE [Q15K], for which the protein stability index is 1.43.

Turning to YVTTNVSLIPPRSEWLVNFTGKAE [Q15W], the protein stability index worked out at 1.86.

On to YVTTNVSLIPPRSEPLVNFTGKAE [Q15P], for which the protein stability index amounted to 2.28.

For YVTTNVSLIPPRSEFLVNFTGKAE [Q15F], the protein stability index was 1.5.

In the case of YVTTNVSLIPPRSEELVNFTGKAE [Q15E], the protein stability index was 2.07.

For YVTTNVSLIPPRSEHLVNFTGKAE [Q15H], the protein stability index amounted to 2.33.

As for YVTTNVSLIPPRSEVLVNFTGKAE [Q15V], the protein stability index was found to be 2.17.

Regarding YVTTNVSLIPPRSECLVNFTGKAE [Q15C], the protein stability index turned out to be 2.24.

YVTTNVSLIPPRSELLVNFTGKAE [Q15L]: the protein stability index amounted to 2.69.

As for YVTTNVSLIPPRSESLVNFTGKAE [Q15S], the protein stability index was determined as 1.96.

With YVTTNVSLIPPRSEILVNFTGKAE [Q15I], the protein stability index stood at 2.37.

Regarding YVTTNVSLIPPRSETLVNFTGKAE [Q15T], the protein stability index worked out at 2.23.

Regarding YVTTNVSLIPPRSENLVNFTGKAE [Q15N], the protein stability index was 1.55.

Take YVTTNVSLIPPRSERLVNFTGKAE [Q15R]: the protein stability index came out at 1.74.

Turning to YVTTNVSLIPPRSEALVNFTGKAE [Q15A], the protein stability index was determined as 1.5.

Turning to YVTTNVSLIPPRSEDLVNFTGKAE [Q15D], the protein stability index was determined as 2.08.

Turning to YVTTNVSLIPPRSEMLVNFTGKAE [Q15M], the protein stability index stood at 1.7.

With YVTTNVSLIPPRSEQFVNFTGKAE [L16F], the protein stability index worked out at 1.88.

As to YVTTNVSLIPPRSEQPVNFTGKAE [L16P], the protein stability index was 2.55.

As for YVTTNVSLIPPRSEQVVNFTGKAE [L16V], the protein stability index amounted to 1.34.

On to YVTTNVSLIPPRSEQYVNFTGKAE [L16Y], for which the protein stability index was 1.73.

In the case of YVTTNVSLIPPRSEQIVNFTGKAE [L16I], the protein stability index was determined as 2.23.

With YVTTNVSLIPPRSEQAVNFTGKAE [L16A], the protein stability index was 2.14.

In the case of YVTTNVSLIPPRSEQQVNFTGKAE [L16Q], the protein stability index worked out at 1.92.

Consider YVTTNVSLIPPRSEQMVNFTGKAE [L16M], for which the protein stability index turned out to be 2.02.

On to YVTTNVSLIPPRSEQDVNFTGKAE [L16D], for which the protein stability index came to 2.05.

For the variant YVTTNVSLIPPRSEQWVNFTGKAE [L16W], the protein stability index worked out at 2.26.

Regarding YVTTNVSLIPPRSEQKVNFTGKAE [L16K], the protein stability index came to 1.9.

Regarding YVTTNVSLIPPRSEQGVNFTGKAE [L16G], the protein stability index came to 1.81.

As to YVTTNVSLIPPRSEQTVNFTGKAE [L16T], the protein stability index was determined as 1.79.

Take YVTTNVSLIPPRSEQCVNFTGKAE [L16C]: the protein stability index was 2.16.

Regarding YVTTNVSLIPPRSEQEVNFTGKAE [L16E], the protein stability index was 2.1.

Turning to YVTTNVSLIPPRSEQNVNFTGKAE [L16N], the protein stability index came to 1.66.

Turning to YVTTNVSLIPPRSEQRVNFTGKAE [L16R], the protein stability index turned out to be 1.95.

Regarding YVTTNVSLIPPRSEQSVNFTGKAE [L16S], the protein stability index turned out to be 1.91.

For the variant YVTTNVSLIPPRSEQHVNFTGKAE [L16H], the protein stability index stood at 1.49.
